We go through one molecule from PMC10936626 (Autophagy, 2023).

This test concerns the target GST-tagged SRC, bacterially purified (human, UniProt P12931-1 1-536). As to the kind of experiment: pull-down.

B1: Flag-tagged MEF2D protein purified from HEK293T cells (natural protein, human, UniProt Q14814-1 1-521, looked up)
chain: MGRKKIQIQRITDERNRQVTFTKRKFGLMKKAYELSVLCDCEIALIIFNHSNKLFQYASTDMDKVLLKYTEYNEPHESRTNADIIETLRKKGFNGCDSPEPDGEDSLEQSPLLEDKYRRASEELDGLFRRYGSTVPAPNFAMPVTVPVSNQSSLQFSNPSGSLVTPSLVTSSLTDPRLLSPQQPALQRNSVSPGLPQRPASAGAMLGGDLNSANGACPSPVGNGYVSARASPGLLPVANGNSLNKVIPAKSPPPPTHSTQLGAPSRKPDLRVITSQAGKGLMHHLTEDHLDLNNAQRLGVSQSTHSLTTPVVSVATPSLLSQGLPFSSMPTAYNTDYQLTSAELSSLPAFSSPGGLSLGNVTAWQQPQQPQQPQQPQPPQQQPPQPQQPQPQQPQQPQQPPQQQSHLVPVSLSNLIPGSPLPHVGAALTVTTHPHISIKSEPVSPSRERSPAPPPPAVFPAARPEPGDGLSSPAGGSYETGDRDDGRGDFGPTLGLLRPAPEPEAEGSAVKRMRLDTWTLK
With B1, the binding result is “binds”.
